The results in this text go back to PMC3829318.

Series [1] can be described thus: transient expression in N. benthamiana leaves. The settings on record: glycan lost; control: wild-type KOR1-Fc-GFP.
Series [2] is described as follows: Golgi processing of remaining glycopeptides, LC-ESI-MS, N. benthamiana. Conditions: glycan lost; control: wild-type KOR1-Fc-GFP.
Series [3] can be described thus: anti-KOR1 immunoblot of Sf21 culture medium. Conditions: glycan lost; control: rKOR1 WT. In general terms: In western blotting, separated proteins are transferred to a membrane and probed.
Series [4] in a line: CMC hydrolysis after non-denaturing deglycosylation. Conditions: glycan lost; control: untreated rKOR1 WT.
Series [5] can be described thus: CMC hydrolysis after non-denaturing Endo H.
[6] abbreviates: glycan lost, control: Endo H-digested rKOR1 WT.

B1: KORRIGAN1 (KOR1): N324Q/N345Q (protein)
parent chain: MYGRDPWGGPLEINTADSATDDDRSRNLNDLDRAALSRPLDETQQSWLLGPTEQKKKKYVDLGCIIVSRKIFVWTVGTLVAAALLAGFITLIVKTVPRHHPKTPPPDNYTIALHKALKFFNAQKSGKLPKHNNVSWRGNSGLQDGKGETGSFYKDLVGGYYDAGDAIKFNFPMAYAMTMLSWSVIEYSAKYEAAGELTHVKELIKWGTDYFLKTFNSTADSIDDLVSQVGSGNTDDGNTDPNDHYCWMRPEDMDYKRPVTTCNGGCSDLAAEMAAALASASIVFKDNKEYSKKLVHGAKVVYQFGRTRRGRYSAGTAESSKFYNSSMYWDEFIWGGAWMYYATGNVTYLNLITQPTMAKHAGAFWGGPYYGVFSWDNKLAGAQLLLSRLRLFLSPGYPYEEILRTFHNQTSIVMCSYLPIFNKFNRTNGGLIELNHGAPQPLQYSVNAAFLATLYSDYLDAADTPGWYCGPNFYSTSVLRDFARSQIDYILGKNPRKMSYVVGFGTKYPRHVHHRGASIPKNKVKYNCKGGWKWRDSKKPNPNTIEGAMVAGPDKRDGYRDVRMNYNYTEPTLAGNAGLVAALVALSGEEEATGKIDKNTIFSAVPPLFPTPPPPPAPWKP
Consider B1, for which the expression_or_secretion entry in series [1] was “no change”; in series [3] it was “decreases”. In addition, the localisation_or_trafficking entry in series [2] is listed as “no change”.

B2: KORRIGAN1 (KOR1): Endo H (protein)
parent chain: B1 parent chain
Turning to B2, in series [4], the “enzymatic_activity, percent_of_wt” value is listed as “decreases, loss of 20–30% vs 100”.

B3: KORRIGAN1 (KOR1): N408Q + Endo H (protein)
parent chain: B1 parent chain
As to B3, the enzymatic_activity result in series [5] (setting [6]) is given as “no change”.

B4: KORRIGAN1 (KOR1): PNGase F (protein)
parent chain: B1 parent chain
Regarding B4, in series [4], the “enzymatic_activity, percent_of_wt” value is “decreases, ∼50 vs 100”.

B5: KORRIGAN1 (KOR1): N345Q + Endo H (protein)
parent chain: B1 parent chain
As for B5, the enzymatic_activity result in series [5] (setting [6]) is reported as “no change”.

B6: KORRIGAN1 (KOR1): N324Q + Endo H (protein)
parent chain: B1 parent chain
As for B6, the enzymatic_activity result in series [5] (setting [6]) was “no change”.

B7: KORRIGAN1 (KOR1): N425Q + Endo H (protein)
parent chain: B1 parent chain
For B7, in series [5] (setting [6]), the enzymatic_activity entry was “no change”.

B8: KORRIGAN1 (KOR1): kifunensine (rKOR1 KIF) + Endo H (protein)
parent chain: B1 parent chain
On to B8, for which, in series [5] (glycan changed form, control: Endo H-treated rKOR1 WT), the enzymatic_activity entry is listed as “decreases”.

B9: KORRIGAN1 (KOR1): N216Q + Endo H (protein)
parent chain: B1 parent chain
In the case of B9, the enzymatic_activity entry in series [5] (setting [6]) was “no change”.
